Values joined by “and” are separate entries in the source; they are usually repeats but may differ in a detail not shown here. Equal entries are not always repeated.
Legend:
human IgG [1] = assay: ELISA in Superblock buffer, OD 450 nm; partner not named on the sheet, legend paragraph 53 says 'to human IgG', ng/ml is the unit of the x axis
[2] = biological target: T1, human STAT3, endogenous, in human cell lines (U251, MDA-MB-468, HeLa, MCF-10A, MCF-7, COLO205) (human, UniProt P40763 2-770); assay: flow cytometry on PFA-fixed, methanol-permeabilised U251 cells, PE anti-human IgG, MFI (FL-2)
T1 construct: whole, on cells; also called cellular antigens
T1 sequence (P40763 2-770): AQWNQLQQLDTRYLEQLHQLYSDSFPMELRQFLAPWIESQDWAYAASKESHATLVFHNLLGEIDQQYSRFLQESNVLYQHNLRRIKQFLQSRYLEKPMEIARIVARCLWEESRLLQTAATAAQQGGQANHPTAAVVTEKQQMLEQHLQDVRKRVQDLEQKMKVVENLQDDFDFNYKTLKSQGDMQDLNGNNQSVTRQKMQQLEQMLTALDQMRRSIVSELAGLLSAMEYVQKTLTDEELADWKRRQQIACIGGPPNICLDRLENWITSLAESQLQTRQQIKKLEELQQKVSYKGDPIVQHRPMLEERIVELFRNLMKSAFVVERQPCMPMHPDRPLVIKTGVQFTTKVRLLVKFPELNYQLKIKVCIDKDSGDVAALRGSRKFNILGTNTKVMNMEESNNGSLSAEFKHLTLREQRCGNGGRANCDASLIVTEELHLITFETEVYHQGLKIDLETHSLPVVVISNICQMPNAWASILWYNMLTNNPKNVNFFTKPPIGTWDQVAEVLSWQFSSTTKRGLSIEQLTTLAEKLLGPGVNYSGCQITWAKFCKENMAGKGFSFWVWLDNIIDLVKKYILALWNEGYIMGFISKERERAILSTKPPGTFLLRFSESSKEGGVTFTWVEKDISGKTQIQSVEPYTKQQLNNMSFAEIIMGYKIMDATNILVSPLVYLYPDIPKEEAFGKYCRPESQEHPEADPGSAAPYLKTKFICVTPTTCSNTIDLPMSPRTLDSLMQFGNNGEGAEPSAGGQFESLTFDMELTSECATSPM
Description: (§1) Next, the binding of the candidate anti-STAT3 antibodies to cellular targets was tested in cell binding assays using MDA-MB-435 breast cancer cells and U251 cells. The cells were seeded overnight in a 96 well plate, then fixed with PFA and permeabilized with methanol. Cells were incubated with serial dilutions of the anti-STAT3 antibody candidates ST1A5, ST3G12 and ST5G12 for one hour and 30 minutes. Following incubation, the cells were washed and incubated for 30 minutes with phycoerythrin (PE) conjugated anti-human IgG. Fluorescence was measured on an Intellicyte high-throughput flow cytometry analyzer. […] Bevacizumab (Avastin), a monoclonal antibody that inhibits vascular endothelial growth factor A (VEGF-A) was used as a negative control.

[3] = biological target: T2, recombinant human STAT3 protein (human, UniProt P40763 1-770, limits assumed); assay: STAT3 binding ELISA, Hu-IgG-Fab detection (title on the sheet), OD 450 nm, ng/ml is the unit of the x axis
T2 construct: also called recombinant human STAT3 proteins; antigen
T2 sequence (P40763 whole entry): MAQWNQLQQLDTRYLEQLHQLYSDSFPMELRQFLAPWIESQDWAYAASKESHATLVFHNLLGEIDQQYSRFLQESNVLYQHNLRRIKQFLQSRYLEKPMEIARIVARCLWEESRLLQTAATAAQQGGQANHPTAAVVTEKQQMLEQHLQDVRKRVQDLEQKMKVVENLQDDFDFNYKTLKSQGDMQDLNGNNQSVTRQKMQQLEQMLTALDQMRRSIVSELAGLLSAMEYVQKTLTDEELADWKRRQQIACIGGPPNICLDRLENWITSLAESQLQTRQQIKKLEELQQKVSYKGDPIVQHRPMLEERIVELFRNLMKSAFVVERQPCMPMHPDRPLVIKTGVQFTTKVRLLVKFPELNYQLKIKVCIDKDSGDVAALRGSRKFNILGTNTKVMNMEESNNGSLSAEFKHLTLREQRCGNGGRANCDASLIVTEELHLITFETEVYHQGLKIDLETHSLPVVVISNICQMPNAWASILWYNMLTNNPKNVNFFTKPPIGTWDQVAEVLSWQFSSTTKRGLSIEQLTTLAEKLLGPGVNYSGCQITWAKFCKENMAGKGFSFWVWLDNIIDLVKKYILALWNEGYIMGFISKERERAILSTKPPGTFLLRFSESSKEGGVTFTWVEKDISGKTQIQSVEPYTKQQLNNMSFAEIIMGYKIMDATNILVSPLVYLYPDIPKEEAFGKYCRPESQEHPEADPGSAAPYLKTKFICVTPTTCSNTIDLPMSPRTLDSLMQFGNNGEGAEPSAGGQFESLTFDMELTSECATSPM

[4] = biological target: T1, human STAT3, endogenous, in human cell …; assay: flow cytometry (HTFC) on permeabilised U251 cells, PE anti-human IgG
Description: After 45 minutes at room temperature, cells were washed twice and incubated with phycoerythrin (PE) conjugated-anti-human IgG for 20 minutes at room temperature in the dark. Cells were then washed and analyzed by high throughput flow cytometry (HTFC). The results are shown in FIG. 4 for assessment of antibody binding to U251 cells.

[5] = biological target: T2, recombinant human STAT3 protein; assay: ELISA on recombinant human STAT3 protein, Abs 450
[6] = biological target: T3, mouse STAT3, endogenous, in mouse cell lines CT-26 and MC-38 (mouse, UniProt P42227 2-770); assay: flow cytometry on fixed, permeabilised mouse CT-26 and MC-38 cells, PE anti-human IgG; antibody concentration not given
T3 construct: whole, on cells; Intracellular protein
T3 sequence (P42227 2-770): as the sequence (P40763 2-770) above, with E759D counted along it

[7] = biological target: T4, recombinant human STAT3-GST (human, UniProt P40763 1-770, limits assumed); assay: SPR (Biacore T200), antibody captured on anti-human Fc, STAT3-GST as analyte, 1:1 model
T4 construct: Analyte in the Biacore assay; not shown: GST (glutathione S-transferase) tag
T4 sequence (P40763 whole entry): as the sequence (P40763 whole entry) above
Description: Anti-human Fc antibody (GE, BR-1008-39) was immobilized on a CM5 sensor chip to approximately 1000 RU using standard NHS/EDC coupling methodology. Antibodies (approximately 10 ug/ml) were captured for 60 seconds at a flow rate of 10 ul/min Recombinant human STAT3-GST was serially diluted 2-fold into running buffer (HBS-EP+, starting from […]). All measurements were conducted at a flow rate of 30 ul/min Surfaces were regenerated with 3M MgCl₂ (from human antibody kit) for 60 seconds. A 1:1 (Langmuir) binding model was used to fit the data.

[8] = biological target: T2, recombinant human STAT3 protein; assay: ELISA in Superblock buffer, OD 450 nm; antigen named neither on the sheet nor in legend paragraph 54, taken as the antibody's antigen STAT3, ng/ml is the unit of the x axis
[9] = biological target: T2, recombinant human STAT3 protein; assay: ELISA on recombinant human STAT3 protein, absorbance at 450
[10] = biological target: T2, recombinant human STAT3 protein; assay: ELISA in Superblock buffer, OD 450 nm; antigen named neither on the sheet nor in legend paragraph 54, taken as the antibody's antigen STAT3; unit from the x axis
human IgG [11] = assay: ELISA in Superblock buffer, OD 450 nm; partner not named on the sheet, legend paragraph 53 says 'to human IgG'; column taken as the curve ST3G12-PS superblock; unit from the x axis
[12] = biological target: T1, human STAT3, endogenous, in human cell …; assay: flow cytometry on PFA-fixed, methanol-permeabilised MDA-MB-468 cells, PE anti-human IgG, MFI (FL-2)
Description: as §1

| Binder | EC50 (human IgG [1]) [µg/mL] | EC50 (read off the curve) [2] [nM] | EC50 [3] [µg/mL] | EC50 (read off the curve) [4] [nM] | EC50 (read off the curve) [5] | binding result [6] | Kd [7] [nM] | koff [7] [s⁻¹] | kon [7] [M⁻¹ s⁻¹] | EC50 [8] [µg/mL] | EC50 (read off the curve) [9] [µg/mL] | EC50 [10] [µg/mL] | EC50 (human IgG [11]) [µg/mL] | EC50 (read off the curve) [12] [nM] |
| --- | --- | --- | --- | --- | --- | --- | --- | --- | --- | --- | --- | --- | --- | --- |
| anti-STAT3 antibody ST3G12 (naked / unmodified) (antibody, V domains shown, Fully human monoclonal antibody, detected with anti-human IgG and captured with anti-human Fc; also called Ab#1; ST3G12-unmodified) VH: QVQLVQSGAEVKKPGASVKVSCKASGYTFTSYYMHWVRQAPGQGLEWMGIINPSGGSTSYAQKFQGRVTMTRDTSTSTVYMELSSLRSEDTAVYYCARSDYVHSFDIWGQGTMVTVSS VL: QPVLTQPPSASALLGASIKLTCTLSSEHSTYTVEWYQQRPGRSPQYIMNVKSDGSYNKGDGIPDRFMGSSSGADRYLTFSNLQSDDEAEYHCGESHRIDGQVGVVFGGGTKLTVL | 0.122 | ~4 | 0.155 | ~10 | ~0.06 µg/mL | binds | 5.39 | 0.000322 | 59700 | 0.0257 | ~0.007 |  |  |  |
| ST3G12-PS antibody conjugate (compound 901) (antibody, V domains shown, also called PS-ST3G12; Anti-STAT3-PS) VH: QVQLVQSGAEVKKPGASVKVSCKASGYTFTSYYMHWVRQAPGQGLEWMGIINPSGGSTSYAQKFQGRVTMTRDTSTSTVYMELSSLRSEDTAVYYCARSDYVHSFDIWGQGTMVTVSS VL: QPVLTQPPSASALLGASIKLTCTLSSEHSTYTVEWYQQRPGRSPQYIMNVKSDGSYNKGDGIPDRFMGSSSGADRYLTFSNLQSDDEAEYHCGESHRIDGQVGVVFGGGTKLTVL |  |  | 0.153 |  | ~0.06 µg/mL and ~0.1 µg/mL |  | 0.222 | 0.00011 | 494000 |  | ~0.007 | 0.0643 | 0.186 |  |
| anti-STAT3 antibody ST1A5 (antibody, V domains shown, Fully human monoclonal antibody detected with anti-human IgG; also called Ab#2) VH: not shown VL: QSVLTQPPSVSKGLRQTATLTCTGNSNNVGNEGAAWLQQHQGHPPKLLSYRNFNRPSGISERFSASRSGNTASLTITGLQPEDEADYYCSAWDSSLSAWVFGGGTKLTVL |  |  |  |  |  |  |  |  |  |  |  |  |  | ~5 |

Source: patent US20170306048A1 (SORRENTO THERAPEUTICS, published 2017)
